Laboratory results taken from patent US20200277377A1 (WUXI BIOLOGICS SHANGHAI, published 2020).
Positions count from the first letter of the chain named.

T1: hCTLA4_ECD.His point mutant K65 to alanine (human, UniProt P16410 36-161)
T1 construct: extracellular domain; alanine-scan mutein, HEK293F supernatant
T1 sequence (looked up): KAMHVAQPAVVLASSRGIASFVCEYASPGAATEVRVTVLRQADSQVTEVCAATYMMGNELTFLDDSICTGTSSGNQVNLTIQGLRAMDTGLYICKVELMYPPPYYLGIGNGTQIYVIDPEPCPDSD

T2: hCTLA4_ECD.His point mutant V81 to alanine (human, UniProt P16410 36-161)
T2 construct: extracellular domain; alanine-scan mutein, HEK293F supernatant
T2 sequence (looked up): T1 sequence (looked up) with A30K, V46A

T3: hCTLA4_ECD.His point mutant T82 to alanine (human, UniProt P16410 36-161)
T3 construct: extracellular domain; alanine-scan mutein, HEK293F supernatant
T3 sequence (looked up): T1 sequence (looked up) with A30K, T47A

T4: hCTLA4_ECD.His point mutant Y89 to alanine (human, UniProt P16410 36-161)
T4 construct: extracellular domain; alanine-scan mutein, HEK293F supernatant
T4 sequence (looked up): T1 sequence (looked up) with A30K, Y54A

T5: hCTLA4_ECD.His point mutant M90 to alanine (human, UniProt P16410 36-161)
T5 construct: extracellular domain; alanine-scan mutein, HEK293F supernatant
T5 sequence (looked up): T1 sequence (looked up) with A30K, M55A

T6: hCTLA4_ECD.His point mutant C103 to alanine (human, UniProt P16410 36-161)
T6 construct: extracellular domain; alanine-scan mutein, HEK293F supernatant
T6 sequence (looked up): T1 sequence (looked up) with A30K, C68A

T7: hCTLA4_ECD.His point mutant I128 to alanine (human, UniProt P16410 36-161)
T7 construct: extracellular domain; alanine-scan mutein, HEK293F supernatant
T7 sequence (looked up): T1 sequence (looked up) with A30K, I93A

T8: hCTLA4_ECD.His point mutant K130 to alanine (human, UniProt P16410 36-161)
T8 construct: extracellular domain; alanine-scan mutein, HEK293F supernatant
T8 sequence (looked up): T1 sequence (looked up) with A30K, K95A

T9: hCTLA4_ECD.His point mutant E132 to alanine (human, UniProt P16410 36-161)
T9 construct: extracellular domain; alanine-scan mutein, HEK293F supernatant
T9 sequence (looked up): T1 sequence (looked up) with A30K, E97A

T10: hCTLA4_ECD.His point mutant G142 to alanine (human, UniProt P16410 36-161)
T10 construct: extracellular domain; alanine-scan mutein, HEK293F supernatant
T10 sequence (looked up): T1 sequence (looked up) with A30K, G107A

T11: hCTLA4_ECD.His point mutant G144 to alanine (human, UniProt P16410 36-161)
T11 construct: extracellular domain; alanine-scan mutein, HEK293F supernatant
T11 sequence (looked up): T1 sequence (looked up) with A30K, G109A

T12: hCTLA4_ECD.His point mutant T147 to alanine (human, UniProt P16410 36-161)
T12 construct: extracellular domain; alanine-scan mutein, HEK293F supernatant
T12 sequence (looked up): T1 sequence (looked up) with A30K, T112A

T13: hCTLA4_ECD.His point mutant Q148 to alanine (human, UniProt P16410 36-161)
T13 construct: extracellular domain; alanine-scan mutein, HEK293F supernatant
T13 sequence (looked up): T1 sequence (looked up) with A30K, Q113A

B1: W3162_1.154.8-z35-uAb.IgG1K (antibody, V domains shown)
VH: QVQLVQSGAEVKKPGSSVKVSCKASGYTFTNYFMNWVRQAPGQGLEWMGRVDPEQGRADYAEKFKKRVTITADKSTSTAYMELSSLRSEDTAVYYCARRAMDNYGFAYWGQGTLVTVSS
VL: EIVLTQSPDFQSVTPKEKVTITCSANSALSYMYWYQQKPDQSPKLWVHGTSNLASGVPSRFSGSGSGTDFTLTINSLEAEDAATYYCHHWSNTQWTFGGGTKVEIK
notes: Humanized; label says IgG1K
B2: W3162-1.146.19-z12-uAb.IgG1K (antibody, V domains shown)
VH: QVQLQESGPGLVKPSETLSLTCSVTYHTITSGYDWTWIRKPPGKGMEWIGYISYSGNTNYNPSLKSRVTISRDTSKNQFFLKLSSVTAADTAVYYCASMMVPHYYVMDAWGQGTLVTVSS
VL: DIVMTQTPLSLSVTPGQPASISCRSSQSLLNSDGNTYLYWYLQKPGQSPQLLIYLVSKLGSGVPNRFSGSGSGTDFTLKISRVEAEDVGVYYCVQGTHDPWTFGGGTKVEIK
notes: Humanized; label says IgG1K

Key:
Test in all cases: capture ELISA, alanine scan, vs silent alanine substitutions
[1] = biological target: T1, hCTLA4_ECD.His point mutant K65 to …
Protocol: (§1) In order to test how the mutations affect antibody-binding, a capture ELISA was conducted. […] After interacting with the supernatant that contains quantified CTLA4 muteins, HRP conjugated anti-His antibody (1:5000; Rockland Immunochemicals, Pottstown, Pa.) was added as detection antibody. TMB was used as substance of HRP. Absorbance was normalized according to the average of control mutants. After setting an additional cutoff to the binding fold change (<0.55), the final determined epitope residues were identified.

[2] = biological target: T2, hCTLA4_ECD.His point mutant V81 to …
Protocol: as §1

[3] = biological target: T3, hCTLA4_ECD.His point mutant T82 to …
Protocol: as §1

[4] = biological target: T4, hCTLA4_ECD.His point mutant Y89 to …
Protocol: as §1

[5] = biological target: T5, hCTLA4_ECD.His point mutant M90 to …
Protocol: as §1

[6] = biological target: T6, hCTLA4_ECD.His point mutant C103 to …
Protocol: as §1

[7] = biological target: T7, hCTLA4_ECD.His point mutant I128 to …
Protocol: as §1

[8] = biological target: T8, hCTLA4_ECD.His point mutant K130 to …
Protocol: as §1

[9] = biological target: T9, hCTLA4_ECD.His point mutant E132 to …
Protocol: as §1

[10] = biological target: T10, hCTLA4_ECD.His point mutant G142 to …
Protocol: as §1

[11] = biological target: T11, hCTLA4_ECD.His point mutant G144 to …
Protocol: as §1

[12] = biological target: T12, hCTLA4_ECD.His point mutant T147 to …
Protocol: as §1

[13] = biological target: T13, hCTLA4_ECD.His point mutant Q148 to …
Protocol: as §1

Row | Binder | Fold change [1] | Fold change [2] | Fold change [3] | Fold change [4] | Fold change [5] | Fold change [6] | Fold change [7] | Fold change [8] | Fold change [9] | Fold change [10] | Fold change [11] | Fold change [12] | Fold change [13]
1 | B1 | 0.351 fold | – | – | – | – | – | – | – | – | – | – | – | –
2 | B2 | – | 0.191 fold | 0.436 fold | 0.512 fold | 0.492 fold | 0.544 fold | 0.256 fold | 0.348 fold | 0.457 fold | 0.543 fold | 0.478 fold | 0.486 fold | 0.5 fold
